Patent US20230250167A1 (published 2023)
Positions count from the first letter of the chain named. Values joined by “and” are separate entries in the source; they are usually repeats but may differ in a detail not shown here. Equal entries are not always repeated. Values belong to the binder of their own block, whether it stands above or below them.

Experiments:
[1] = biological target: T1, human ILT7 expressed on transfected cells (human, UniProt P59901 24-499); assay: FMAT cell binding, CHO cells expressing human ILT7
T1 construct: whole, on cells; also called LILRA4; LIRA4
T1 sequence (P59901 24-499): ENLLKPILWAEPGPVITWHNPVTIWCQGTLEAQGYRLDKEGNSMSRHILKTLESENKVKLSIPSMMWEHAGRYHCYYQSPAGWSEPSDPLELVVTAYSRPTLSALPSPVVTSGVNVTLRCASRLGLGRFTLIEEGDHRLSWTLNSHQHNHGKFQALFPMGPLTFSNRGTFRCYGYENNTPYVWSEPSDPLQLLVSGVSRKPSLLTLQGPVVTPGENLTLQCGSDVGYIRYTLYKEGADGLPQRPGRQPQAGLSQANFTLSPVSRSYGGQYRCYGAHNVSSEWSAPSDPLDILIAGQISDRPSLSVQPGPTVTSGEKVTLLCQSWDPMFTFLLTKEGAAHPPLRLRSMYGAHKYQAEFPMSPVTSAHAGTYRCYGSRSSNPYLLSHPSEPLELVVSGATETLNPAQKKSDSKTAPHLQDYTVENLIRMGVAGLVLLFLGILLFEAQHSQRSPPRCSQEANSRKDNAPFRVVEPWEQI
From the text: This homogeneous assay assessed the binding of crude scFv supernatant samples or purified IgG to Chinese Hamster Ovary (CHO) cells expressing either human or cynomolgus ILT7 in a 384-well (Costar 3655) format. ScFv or Ab binding to cells was detected using a mouse anti-His/goat anti-mouse Alexafluor®-647 labelled antibody (Molecular Probes A21236) mix, or goat anti-human Alexafluor®-647 labelled antibody (Molecular Probes A21445) respectively. Plates were read on the Applied Biosystems Cellular Detection system 8200 reader. The Helium neon excitation laser was focused within 100 μm depth of the bottom of the well, scanning an area 1 mm². The cells settled at the bottom of the well, and upon laser excitation at 633 nm, those beads with fluorophore bound (where the local concentration of fluorophore is relatively high compared to unbound fluorophore) emitted a signal at 650-685 nm that was measured using photomultiplier tube-1 (PMT1). […] The presence of scFv or IgG samples binding to the cells at the bottom of the well caused an increase in Alexafluor-labeled detection antibody within the excitation depth. This was measured as an increase in fluorescence.
Species cross-reactivity of anti-ILT7 antibodies was determined using FMAT binding assay. The detailed assay method is provided in the Materials and Methods section. […]

[2] = biological target: T1, human ILT7 expressed on transfected …; assay: cell-based or functional assay
[3] = biological target: T2, cynomolgus ILT7 expressed on transfected cells (cynomolgus, UniProt P59901 24-499 (human entry)); assay: cell-based or functional assay
T2 sequence (P59901 other isoform, or with tags, fused parts or gaps limits assumed): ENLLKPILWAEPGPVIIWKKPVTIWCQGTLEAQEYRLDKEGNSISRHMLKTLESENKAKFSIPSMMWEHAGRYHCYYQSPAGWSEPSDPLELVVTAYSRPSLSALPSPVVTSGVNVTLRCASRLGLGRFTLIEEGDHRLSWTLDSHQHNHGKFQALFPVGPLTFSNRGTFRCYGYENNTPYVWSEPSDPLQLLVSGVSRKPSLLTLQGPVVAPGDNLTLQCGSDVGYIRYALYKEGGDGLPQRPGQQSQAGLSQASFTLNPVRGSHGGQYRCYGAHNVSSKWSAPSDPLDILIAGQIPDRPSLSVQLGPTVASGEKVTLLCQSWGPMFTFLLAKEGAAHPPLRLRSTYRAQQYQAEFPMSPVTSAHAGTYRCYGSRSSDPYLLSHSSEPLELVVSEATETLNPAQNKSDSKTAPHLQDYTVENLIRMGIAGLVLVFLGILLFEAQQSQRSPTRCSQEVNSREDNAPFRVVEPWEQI

[4] = biological target: T2, cynomolgus ILT7 expressed on …; assay: flow cytometry on CT-125 cells expressing cynomolgus ILT7
Description: Binding of anti-ILT7 variants and isotype controls on human and cynomolgus ILT7 was assessed by flow cytometry analysis using CT-550 and cynoILT7 CT-125 cells respectively. CT-125 cells were used as control. Cells were resuspended in Blocking Buffer (PBS supplemented with 10% FBS) at a concentration of 5 million cells per mL and transferred into a round-bottom 96-well plates (BD Falcon™ Clear Microtest Plate, BD Biosciences) at 100 μL per well. Anti-ILT7 variants and control antibodies were added onto the cells for 30 min at 4° C. on a plate shaker. Cells were washed three times with PBS and resuspended in Blocking Buffer (100 μL/well). Human IgG binding on cell surface was detected using a secondary anti-human IgG antibody conjugated to DyLight 649 (1 in 1000 dilution). Cells were incubated in the dark for 30 min at 4° C. on a plate shaker. Cells were washed three times with PBS and surface fluorescence was acquired using LSRII Flow Cytometry System and FACSDiva Software (both from BD Biosciences).
The resultant IgG1s were tested to confirm that the sequence changes incorporated into ILT70080 and ILT70083 and had not adversely impacted the binding of the parent antibody to cells expressing human ILT7 (CT-550 cells) or cynomolgus ILT7 (CT-125 cells). The variants were screened for binding by flow cytometry. […] However, five ILT70083 variants (ILT70083.4, ILT70083.9, ILT70083.3, ILT70083.6, and ILT70083.8) had improved binding capacity compared to the parental antibody for cynomolgus ILT7.

B3: ILT70083.1 (antibody, V domains shown)
VH: EVQLLESGGGLVQPGGSLRLSCAASGFTFSSYAMSWVRQAPGKGLEWVSAISGSGGSTYYADSVKGWFTISRDNSKNTLYLQMNSLRAEDTAVYYCARRTYYYDSDGHSDVFDIWGRGTLVTVSS
VL: QSVVTQPPSVSAAPGQKVTISCSGSASNIGSNFVSWYQQLPGTAPKLLIYDNDKRDLGIPDRFSASISSTSATLGITGLQTGDEADYYCGTWDTSLTVGVFGGGTKLTVL
ADCC potency EC50 [2]: > 89 µM

B4: ILT70083.3 (antibody, V domains shown)
VH: B3 VH
VL: B3 VL with A65G, I67K, S69G
notes: Engineered (germlined) ILT70083 IgG1 variant; also called ILT70083 variant
binding result [4]: binds
ADCC potency EC50 [2]: > 89 µM

B5: ILT70083.6 (antibody, V domains shown)
VH: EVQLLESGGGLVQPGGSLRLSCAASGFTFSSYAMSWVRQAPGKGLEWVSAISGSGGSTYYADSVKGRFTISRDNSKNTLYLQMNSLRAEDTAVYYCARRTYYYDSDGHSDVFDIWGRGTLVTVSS
VL: B3 VL
notes: as for B4
binding result [4]: binds
ADCC potency EC50 [2]: > 89 µM

B9: ILT70083.9 (antibody, V domains shown)
VH: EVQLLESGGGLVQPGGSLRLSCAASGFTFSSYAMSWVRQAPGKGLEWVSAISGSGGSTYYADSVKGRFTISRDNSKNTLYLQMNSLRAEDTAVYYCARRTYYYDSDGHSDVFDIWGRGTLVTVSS
VL: B3 VL with V4L, A65G, I67K, S69G
notes: as for B4
binding result [4]: binds
ADCC potency EC50 [2]: > 89 µM

B12: ILT70080.2 (antibody, V domains shown)
VH: QVQLVQSGAEVKKPGSSVKVSCKASGDSFRNYAVSWVRQAPGQGLEWMGAMMPSFGTREHSQQFQGRVTLSADESTSTAYMELSSLRSEDTAVYYCAGSRDYNAYHFWTGPPDFWGRGTLVTVSS
VL: SYVLTQPPSVSVAPGKTARITCGGDSVGSTSVHWYQQKPGQAPVMVMFYNSDRPSGIPERFSGSISGNTATLTISRVEAGDEADYYCQVWDTSSDHPEFGGGTKLTVL
notes: Engineered (germlined) ILT70080 variant tested as IgG1; also called ILT70080 variant
binding result [4]: binds
ADCC potency EC50 [2]: < 14.1 µM

B14: ILT70080.6 (antibody, V domains shown)
VH: B12 VH with S71T
VL: B12 VL with M45L, M47I, F48Y, I65N
notes: as for B12
binding result [4]: binds
ADCC potency EC50 [2]: < 14.1 µM and 6.9 µM

B15: ILT70080.7 (antibody, V domains shown)
VH: B12 VH with S71T
VL: B12 VL with M45L, I65N
notes: as for B12
binding result [4]: binds
ADCC potency EC50 [2]: < 14.1 µM and 7.8 µM

B17: ILT70080.3 (antibody, V domains shown)
VH: B12 VH with K13A, S16T
VL: B12 VL
notes: as for B12
binding result [4]: binds
ADCC potency EC50 [2]: < 14.1 µM and 11 µM

Now from value to binder:

binding result [1]: binds
B1: ILT70100 (antibody, V domains shown)
VH: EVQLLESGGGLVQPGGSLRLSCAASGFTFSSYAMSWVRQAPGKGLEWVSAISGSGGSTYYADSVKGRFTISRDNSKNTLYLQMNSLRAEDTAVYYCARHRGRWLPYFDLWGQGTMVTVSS
VL: DIQLTQSPSSLSASVGERVTITCQASQDIRSYLNWYQQKPGKAPKLLIYDVSNLETGVPSRFSGSGSGTEYTFSISSLQPEDFATYYCQQYDKAPLTFGGGTKVEIK

ADCC EC50 [2]: 4.19 µM
ADCC EC50 [3]: 1.89 µM
B2: afucosylated IgG1 ILT70137 (antibody, V domains shown)
VH: QVQLQQSGAEVKKPGASVKVSCKASGYTFTSYGISWVRQAPGQGLEWMGWISAYNGNTNYAQKLQGRVTMTTDTSTSTAYMELRSLRSDDTAVYYCARNGLWGWDSDAFDIWGRGTLVTVSS
VL: QSALTQPASVSGSPGQSITISCTGTSSDVGGYNYVSWYQQHPGKAPKLMIYDVSNRPSGVSNRFSGSKSGNTASLTISGLQAEDEADYYCSSYTSSSTVVFGGGTKVTVL
modifications: afucosylated (made as in Example 7: lacks the α-1,6 fucose moiety on the N-glycan at Asn-297 of the heavy chain)

ADCC potency EC50 [2]: > 89 µM
B6: ILT70083.5 (antibody, V domains shown)
VH: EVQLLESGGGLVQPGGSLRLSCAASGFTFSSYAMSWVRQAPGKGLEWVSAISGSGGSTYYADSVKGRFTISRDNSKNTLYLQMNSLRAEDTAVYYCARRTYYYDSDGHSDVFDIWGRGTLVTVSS
VL: B3 VL with T43R, T73A, G75A, G82E

ADCC potency EC50 [2]: > 89 µM
B7: ILT70083.2 (antibody, V domains shown)
VH: B3 VH
VL: B3 VL with V4L

ADCC potency EC50 [2]: > 89 µM
B8: ILT70083.7 (antibody, V domains shown)
VH: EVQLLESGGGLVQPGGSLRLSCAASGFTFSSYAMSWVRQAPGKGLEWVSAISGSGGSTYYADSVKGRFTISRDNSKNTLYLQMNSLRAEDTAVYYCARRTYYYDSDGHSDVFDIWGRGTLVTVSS
VL: B3 VL with V4L

binding result [4]: binds
ADCC potency EC50 [2]: > 89 µM
B10: ILT70083.4 (antibody, V domains shown)
VH: B3 VH
VL: B3 VL with V4L, A65G, I67K, S69G
notes: as for B4

binding result [4]: binds
ADCC potency EC50 [2]: > 89 µM
B11: ILT70083.8 (antibody, V domains shown)
VH: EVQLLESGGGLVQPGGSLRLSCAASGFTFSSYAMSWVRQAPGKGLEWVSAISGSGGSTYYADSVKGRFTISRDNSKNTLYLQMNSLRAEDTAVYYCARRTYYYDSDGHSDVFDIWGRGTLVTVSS
VL: B3 VL with A65G, I67K, S69G
notes: as for B4

binding result [4]: binds
ADCC potency EC50 [2]: < 14.1 µM and 8 µM and 10 µM
B13: ILT70080.1 (antibody, V domains shown)
VH: B12 VH with S71T
VL: B12 VL
notes: as for B12

binding result [4]: binds
ADCC potency EC50 [2]: < 14.1 µM and 11.9 µM
B16: ILT70080.4 (antibody, V domains shown)
VH: B12 VH with K13A, S16T
VL: B12 VL with V3E, R19K, T21S
notes: as for B12

ADCC EC50 [2]: 1.12 µM
ADCC EC50 [3]: 0.44 µM
B18: afucosylated ILT70080.6 (antibody, V domains shown)
VH: B12 VH with S71T
VL: B12 VL with M45L, M47I, F48Y, I65N
modifications: afucosylated (no core fucose on the Fc N-glycan)

binding result [4]: binds
ADCC potency EC50 [2]: < 14.1 µM and 8.6 µM
B19: ILT70080.5 (antibody, V domains shown)
VH: B12 VH with S71T
VL: B12 VL with I65N
notes: as for B12

binding result [1]: binds
B20: ILT70052 (antibody, V domains shown)
VH: EVQLVESGGGLVKPGGSLRLSCEASGFTFTDYYMNWIRQAPGKGLEWISYISPGGTTVYYADSVKGRFTISRDNAKNSLYLQMNSLRVEDTAVYYCARDISGYGDWFDPWGKGTLVTVSS
VL: QSVVTQPPSASGTPGQRVTISCSGSSSNIGSNTVNWYQLLPATAPRILIYNNNQRPSGVPDRFAGSKSGTSASLAISGLQSEDEADYYCGAWDDSLNSPVFGGGTKLTVL
